Starred links: 1 amine or outer side, 2 acyl side, 3 side chain; linkers in the order of their positions; H or OH if unused. Positions of bridges follow the written chain, without caps; N, C: chain ends. Non-standard residues stand in square brackets, D forms with d. *: point of attachment. C20 diacid = O=C(O)CCCCCCCCCCCCCCCCCCC(=O)*; 19‑carboxyheptadecanoyl = not defined here; C18 diacid = O=C(O)CCCCCCCCCCCCCCCCC(=O)*; γGlu = O=C(O)[C@H](CCC(=O)[*:2])N[*:1]; AEEA = NCCOCCOCC(=O)O
Columns and labels:
Assay in all cases: cell-based or functional assay
[1] = molecular target: T1, human amylin 3(a) receptor (human calcitonin receptor + RAMP-3) (human, UniProt P30988 25-474; O60896 24-148)
T1 sequence (looked up) 1: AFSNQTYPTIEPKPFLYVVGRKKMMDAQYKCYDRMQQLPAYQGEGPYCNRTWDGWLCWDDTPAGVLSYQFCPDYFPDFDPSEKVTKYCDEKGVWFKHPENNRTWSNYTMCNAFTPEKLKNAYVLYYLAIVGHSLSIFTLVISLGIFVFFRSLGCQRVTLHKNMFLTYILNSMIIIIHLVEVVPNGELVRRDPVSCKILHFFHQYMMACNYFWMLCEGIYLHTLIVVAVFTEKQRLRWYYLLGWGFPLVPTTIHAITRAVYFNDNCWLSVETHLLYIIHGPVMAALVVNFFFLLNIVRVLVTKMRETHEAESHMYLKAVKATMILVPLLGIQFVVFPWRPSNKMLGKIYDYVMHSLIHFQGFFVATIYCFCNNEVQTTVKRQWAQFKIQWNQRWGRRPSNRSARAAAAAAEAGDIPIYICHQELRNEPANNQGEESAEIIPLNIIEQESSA
T1 sequence (looked up) 2: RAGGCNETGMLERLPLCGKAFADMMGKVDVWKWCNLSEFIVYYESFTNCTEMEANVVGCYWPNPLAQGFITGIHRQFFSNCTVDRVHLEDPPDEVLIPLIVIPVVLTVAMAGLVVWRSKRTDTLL

[2] = molecular target: T2, human calcitonin (a) receptor (human, UniProt P30988 25-474)
T2 sequence (looked up): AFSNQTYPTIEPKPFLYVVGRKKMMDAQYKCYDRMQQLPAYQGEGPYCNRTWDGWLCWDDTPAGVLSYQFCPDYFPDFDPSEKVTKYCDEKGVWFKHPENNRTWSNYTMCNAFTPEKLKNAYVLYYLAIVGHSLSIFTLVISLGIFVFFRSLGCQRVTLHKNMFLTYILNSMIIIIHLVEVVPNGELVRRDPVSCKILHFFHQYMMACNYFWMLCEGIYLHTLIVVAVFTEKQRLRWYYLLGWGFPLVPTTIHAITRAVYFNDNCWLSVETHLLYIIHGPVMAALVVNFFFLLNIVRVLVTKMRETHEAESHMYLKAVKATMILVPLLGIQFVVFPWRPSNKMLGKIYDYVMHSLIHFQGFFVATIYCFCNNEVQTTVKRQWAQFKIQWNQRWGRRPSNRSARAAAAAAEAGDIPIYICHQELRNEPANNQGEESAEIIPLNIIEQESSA

[3] = molecular target: T3, rat amylin 3(a) receptor (rat calcitonin(a) receptor + rat RAMP3) (rat, UniProt P32214 25-516; Q9JJ73 23-147)
T3 sequence (looked up) 1: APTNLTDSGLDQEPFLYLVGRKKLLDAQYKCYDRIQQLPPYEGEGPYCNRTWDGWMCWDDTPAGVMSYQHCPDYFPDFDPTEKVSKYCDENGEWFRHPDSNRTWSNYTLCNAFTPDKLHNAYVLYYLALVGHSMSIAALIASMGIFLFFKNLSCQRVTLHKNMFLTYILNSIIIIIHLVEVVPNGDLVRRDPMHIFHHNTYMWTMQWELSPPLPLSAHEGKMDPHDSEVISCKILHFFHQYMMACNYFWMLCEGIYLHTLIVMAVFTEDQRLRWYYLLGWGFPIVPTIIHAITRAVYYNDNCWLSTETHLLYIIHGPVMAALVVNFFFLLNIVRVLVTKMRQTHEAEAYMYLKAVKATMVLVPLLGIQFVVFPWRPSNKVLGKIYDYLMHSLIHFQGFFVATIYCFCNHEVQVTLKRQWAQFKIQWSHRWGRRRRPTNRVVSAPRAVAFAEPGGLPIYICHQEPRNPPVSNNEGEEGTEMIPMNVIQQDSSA
T3 sequence (looked up) 2: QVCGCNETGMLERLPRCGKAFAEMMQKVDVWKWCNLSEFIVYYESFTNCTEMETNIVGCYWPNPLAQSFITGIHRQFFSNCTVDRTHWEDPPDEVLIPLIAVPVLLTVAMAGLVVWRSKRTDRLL

[4] = molecular target: T4, rat calcitonin (a) receptor (rat, UniProt P32214 25-516)
T4 sequence (looked up): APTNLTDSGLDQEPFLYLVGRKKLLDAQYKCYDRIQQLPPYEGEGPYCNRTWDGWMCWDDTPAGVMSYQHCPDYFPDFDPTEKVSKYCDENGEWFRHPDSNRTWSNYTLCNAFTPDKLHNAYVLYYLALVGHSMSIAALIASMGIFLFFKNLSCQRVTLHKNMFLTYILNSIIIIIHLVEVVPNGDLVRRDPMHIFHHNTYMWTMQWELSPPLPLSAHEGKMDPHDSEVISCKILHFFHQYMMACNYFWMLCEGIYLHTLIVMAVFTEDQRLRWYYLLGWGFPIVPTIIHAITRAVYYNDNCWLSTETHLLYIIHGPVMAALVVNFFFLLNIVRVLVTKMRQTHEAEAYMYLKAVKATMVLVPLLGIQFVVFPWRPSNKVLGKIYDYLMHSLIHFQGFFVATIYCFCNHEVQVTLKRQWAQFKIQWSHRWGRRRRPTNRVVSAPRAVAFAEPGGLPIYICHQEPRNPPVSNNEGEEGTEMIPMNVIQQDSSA

Binder	Amylin receptor human EC50 [1] [nM]	CTa receptor human EC50 [2] [nM]	Amylin receptor rat EC50 [3] [nM]	CTa receptor rat EC50 [4] [nM]
{C20 diacid-γGlu}-EKCNTATCATQRLAEFLHHSSNNFGPILPPTNVGSHTY-NH2 (disulfide 3-8; not fully specified; printed as N-alpha-[(S)-4-Carboxy-4-(19-carboxynonadecanoylamino)butyryl]-Glu-[Glu14,His17,His35]-pramlintide) [N-alpha-[(S)-4-Carboxy-4-(19-carboxynonadecanoylamino)butyryl]-Glu-[Glu14,His17,His35]-pramlintide]	0.299	0.352	0.643	4.97
{C18 diacid-γGlu}-KCNTATCATQRLAEFLHHSSNNFGPILPPTNVGSNTY-NH2 (disulfide 2-7; not fully specified; printed as N-alpha-[(S)-4-Carboxy-4-(17-carboxyheptadecanoylamino)butyryl]-[Glu14,His17]-pramlintide) [N-alpha-[(S)-4-Carboxy-4-(17-carboxyheptadecanoylamino)butyryl]-[Glu14,His17]-pramlintide]	0.0469	0.0792	0.122	0.433
{C18 diacid-γGlu}-HCNTATCATQRLAEFLHHSSNNFGPILPPTNVGSNTY-NH2 (disulfide 2-7; not fully specified; printed as N-alpha-[(S)-4-Carboxy-4-(17-carboxyheptadecanoylamino)butyryl]-[His1,Glu14,His17]-pramlintide) [N-alpha-[(S)-4-Carboxy-4-(17-carboxyheptadecanoylamino)butyryl]-[His1,Glu14,His17]-pramlintide]	0.0425	0.112	0.015	0.375
{C20 diacid-γGlu}-KCNTATCATQRLAEFLHHSSNNFGPILPPTNVGSHTY-NH2 (disulfide 2-7; SMILES CC[C@H](C)[C@H](NC(=O)[C@@H]1CCCN1C(=O)CNC(=O)[C@H](Cc1ccccc1)NC(=O)[C@H](CC(N)=O)NC(=O)[C@H](CC(N)=O)NC(=O)[C@H](CO)NC(=O)[C@H](CO)NC(=O)[C@H](Cc1c[nH]cn1)NC(=O)[C@H](Cc1c[nH]cn1)NC(=O)[C@H](CC(C)C)NC(=O)[C@H](Cc1ccccc1)NC(=O)[C@H](CCC(=O)O)NC(=O)[C@H](C)NC(=O)[C@H](CC(C)C)NC(=O)[C@H](CCCNC(=N)N)NC(=O)[C@H](CCC(N)=O)NC(=O)[C@@H](NC(=O)[C@H](C)NC(=O)[C@@H]1CSSC[C@H](NC(=O)[C@H](CCCCN)NC(=O)CC[C@H](NC(=O)CCCCCCCCCCCCCCCCCCC(=O)O)C(=O)O)C(=O)N[C@@H](CC(N)=O)C(=O)N[C@@H]([C@@H](C)O)C(=O)N[C@@H](C)C(=O)N[C@@H]([C@@H](C)O)C(=O)N1)[C@@H](C)O)C(=O)N[C@@H](CC(C)C)C(=O)N1CCC[C@H]1C(=O)N1CCC[C@H]1C(=O)N[C@H](C(=O)N[C@@H](CC(N)=O)C(=O)N[C@H](C(=O)NCC(=O)N[C@@H](CO)C(=O)N[C@@H](Cc1c[nH]cn1)C(=O)N[C@H](C(=O)N[C@@H](Cc1ccc(O)cc1)C(N)=O)[C@@H](C)O)C(C)C)[C@@H](C)O) [N-alpha-[(S)-4-Carboxy-4-(19-carboxynonadecanoylamino)butyryl]-[Glu14,His17,His35]-pramlintide]	0.152	0.163	0.262	0.673
{19‑carboxyheptadecanoyl-γGlu-AEEA-AEEA}-[dR][dR]KCNTATCATQRLAEFLHRSSNNFGPILPPTNVGSNTY-NH2 (disulfide 4-9; reading uncertain; also: printed as N-alpha-[2-(2-{2-[2-(2-{2-[(S)-4-Carboxy-4-(19-carboxyheptadecanoylamino)butyrylamino]ethoxy}ethoxy)acetylamino]ethoxy}ethoxy)acetyl]-D-Arg-D-Arg-[Glu14,His17,Arg18]-pramlintide)	0.0832	0.642	0.132	1.89
{C18 diacid-γGlu}-EKCNTATCATQRLAEFLHHSSNNFGPILPPTNVGSNTY-NH2 (disulfide 3-8; SMILES CC[C@H](C)[C@H](NC(=O)[C@@H]1CCCN1C(=O)CNC(=O)[C@H](Cc1ccccc1)NC(=O)[C@H](CC(N)=O)NC(=O)[C@H](CC(N)=O)NC(=O)[C@H](CO)NC(=O)[C@H](CO)NC(=O)[C@H](Cc1c[nH]cn1)NC(=O)[C@H](Cc1c[nH]cn1)NC(=O)[C@H](CC(C)C)NC(=O)[C@H](Cc1ccccc1)NC(=O)[C@H](CCC(=O)O)NC(=O)[C@H](C)NC(=O)[C@H](CC(C)C)NC(=O)[C@H](CCCNC(=N)N)NC(=O)[C@H](CCC(N)=O)NC(=O)[C@@H](NC(=O)[C@H](C)NC(=O)[C@@H]1CSSC[C@H](NC(=O)[C@H](CCCCN)NC(=O)[C@H](CCC(=O)O)NC(=O)CC[C@H](NC(=O)CCCCCCCCCCCCCCCCC(=O)O)C(=O)O)C(=O)N[C@@H](CC(N)=O)C(=O)N[C@@H]([C@@H](C)O)C(=O)N[C@@H](C)C(=O)N[C@@H]([C@@H](C)O)C(=O)N1)[C@@H](C)O)C(=O)N[C@@H](CC(C)C)C(=O)N1CCC[C@H]1C(=O)N1CCC[C@H]1C(=O)N[C@H](C(=O)N[C@@H](CC(N)=O)C(=O)N[C@H](C(=O)NCC(=O)N[C@@H](CO)C(=O)N[C@@H](CC(N)=O)C(=O)N[C@H](C(=O)N[C@@H](Cc1ccc(O)cc1)C(N)=O)[C@@H](C)O)C(C)C)[C@@H](C)O) [N-alpha-[(S)-4-Carboxy-4-(17-carboxyheptadecanoylamino)butyryl]-Glu-[Glu14,His17]-pramlintide]	0.0739	0.274	0.135	2.43
{C20 diacid-γGlu}-KCNTATCATQRLAEFLHHSSNNFGPILPPTNVGSNTP-NH2 (disulfide 2-7; not fully specified; printed as N-alpha-[(S)-4-Carboxy-4-(19-carboxynonadecanoylamino)butyryl]-[Glu14,His17,Pro37]-pramlintide) [N-alpha-[(S)-4-Carboxy-4-(19-carboxynonadecanoylamino)butyryl]-[Glu14,His17,Pro37]-pramlintide]	0.062	0.0537	0.16	0.076
{19‑carboxyheptadecanoyl-γGlu-AEEA-AEEA}-[dR][dR]KCNTATCATQRLAEFLHRSSANFGPILPPTNVGSSTY-NH2 (disulfide 4-9; reading uncertain; also: printed as N-alpha-[2-(2-{2-[2-(2-{2-[(S)-4-Carboxy-4-(19-carboxyheptadecanoylamino)butyrylamino]ethoxy}ethoxy)acetylamino]ethoxy}ethoxy)acetyl]-D-Arg-D-Arg-[Glu14,His17,Arg18,Ala21,Ser35]-pramlintide)	0.149	1.11	0.233	4.48

— US20130005646A1 (Novo Nordisk, published 2013)
